According to patent publication US20220324969A1 (MYTHIC THERAPEUTICS, published 2022):
Where a chain is given by its changes, count along the chain named. Numbers in names are those of the source.

B1: MYT2650 (antibody, V domains shown)
VH: QVQLVQSGAEVKKPGASVKVSCKASGYTHTNYDINWVRQAPGQGLEWIGWIYPGDGSTKYNEKFKAKATLTADTSTSTAYMELRSLRSDDTAVYYCASGYEDAMHYWGQGTTVTVSS
VL: DIQMTQSPSSLSASVGDRVTINCKASQDINSYLSWFQQKPGKAPKTLIYRANRLVDGVPSRFSGSGSGQDYTLTISSLQPEDFATYYCLQYDEFPLTFGGGTKVEIK
notes: IgG; vadastuximab VH combination #2 (F29H+D105H)
B2: MYT2651 (antibody, V domains shown)
VH: B1 VH with H29F, T30H
VL: B1 VL
notes: IgG; vadastuximab VH combination #3 (T30H+D105H)
B3: MYT2670 (antibody, V domains shown)
VH: B1 VH with H29F, H105D
VL: B1 VL with D56H
notes: IgG; vadastuximab VL variant #18 (D56H)
B4: MYT2660 (antibody, V domains shown)
VH: B1 VH with H29F, H105D
VL: B1 VL with S31H
notes: IgG; vadastuximab VL variant #8 (S31H)
B5: MYT2675 (antibody, V domains shown)
VH: B1 VH with H29F, H105D
VL: B1 VL with E93H
notes: IgG; vadastuximab VL variant #23 (E93H)
B6: MYT2658 (antibody, V domains shown)
VH: B1 VH with H29F, H105D
VL: B1 VL with I29H
notes: IgG; vadastuximab VL variant #6 (I29H)
B7: MYT2662 (antibody, V domains shown)
VH: B1 VH with H29F, H105D
VL: B1 VL with L33H
notes: IgG; vadastuximab VL variant #10 (L33H)
B8: MYT2665 (antibody, V domains shown)
VH: B1 VH with H29F, H105D
VL: B1 VL with A51H
notes: IgG; vadastuximab VL variant #13 (A51H)
B9: MYT2668 (antibody, V domains shown)
VH: B1 VH with H29F, H105D
VL: B1 VL with L54H
notes: IgG; vadastuximab VL variant #16 (L54H)
B10: MYT2664 (antibody, V domains shown)
VH: B1 VH with H29F, H105D
VL: B1 VL with R50H
notes: IgG; vadastuximab VL variant #12 (R50H)
B11: MYT2652 (antibody, V domains shown)
VH: B1 VH with T30H
VL: B1 VL
notes: IgG; vadastuximab VH combination #4 (F29H+T30H+D105H)
B12: MYT2654 (antibody, V domains shown)
VH: B1 VH with H29F, H105D
VL: B1 VL with A25H
notes: IgG; vadastuximab VL variant #2 (A25H)
B13: MYT2671 (antibody, V domains shown)
VH: B1 VH with H29F, H105D
VL: B1 VL with L89H
notes: IgG; vadastuximab VL variant #19 (L89H)
B14: MYT2657 (antibody, V domains shown)
VH: B1 VH with H29F, H105D
VL: B1 VL with D28H
notes: IgG; vadastuximab VL variant #5 (D28H)
B15: MYT2677 (antibody, V domains shown)
VH: B1 VH with H29F, H105D
VL: B1 VL with P95H
notes: IgG; vadastuximab VL variant #25 (P95H)
B16: MYT2672 (antibody, V domains shown)
VH: B1 VH with H29F, H105D
VL: B1 VL with Q90H
notes: IgG; vadastuximab VL variant #20 (Q90H)
B17: MYT2667 (antibody, V domains shown)
VH: B1 VH with H29F, H105D
VL: B1 VL with R53H
notes: IgG; vadastuximab VL variant #15 (R53H)
B18: MYT2659 (antibody, V domains shown)
VH: B1 VH with H29F, H105D
VL: B1 VL with N30H
notes: IgG; vadastuximab VL variant #7 (N30H)
B19: MYT2655 (antibody, V domains shown)
VH: B1 VH with H29F, H105D
VL: B1 VL with S26H
notes: IgG; vadastuximab VL variant #3 (S26H)
B20: MYT2674 (antibody, V domains shown)
VH: B1 VH with H29F, H105D
VL: B1 VL with D92H
notes: IgG; vadastuximab VL variant #22 (D92H)
B21: MYT2666 (antibody, V domains shown)
VH: B1 VH with H29F, H105D
VL: B1 VL with N52H
notes: IgG; vadastuximab VL variant #14 (N52H)
B22: MYT2653 (antibody, V domains shown)
VH: B1 VH with H29F, H105D
VL: B1 VL with K24H
notes: IgG; vadastuximab VL variant #1 (K24H)
B23: MYT2669 (antibody, V domains shown)
VH: B1 VH with H29F, H105D
VL: B1 VL with V55H
notes: IgG; vadastuximab VL variant #17 (V55H)
B24: MYT2679 (antibody, V domains shown)
VH: B1 VH with H29F, H105D
VL: B1 VL with T97H
notes: IgG; vadastuximab VL variant #27 (T97H)
B25: MYT2656 (antibody, V domains shown)
VH: B1 VH with H29F, H105D
VL: B1 VL with Q27H
notes: IgG; vadastuximab VL variant #4 (Q27H)
B26: MYT2676 (antibody, V domains shown)
VH: B1 VH with H29F, H105D
VL: B1 VL with F94H
notes: IgG; vadastuximab VL variant #24 (F94H)
B27: MYT0482 (antibody, V domains shown)
VH: EVQLVQSGAEVKKPGSSVKVSCKASHYTITDSNIHWVRQAPGQSLEWIGYIYPYNGGTDYNQKFKNRATLTVDNPTNTAYMELSSLRSEDTDFYYCVNGNPWLAYWGQGTLVTVSS
VL: DIQLTQSPSTLSASVGDRVTITCRASESLDNYGIRFLTWFQQKPGKAPKLLMYAASNQGSGVPSRFSGSGSGTEFTLTISSLQPDDFATYYCQQTKEVPWSFGQGTKVEVK
notes: IgG; gemtuzumab VH variant #1 (G26H)
B28: MYT0483 (antibody, V domains shown)
VH: B27 VH with H26G, Y27H
VL: B27 VL
notes: IgG; gemtuzumab VH variant #2 (Y27H)
B29: MYT0486 (antibody, V domains shown)
VH: B27 VH with H26G, T30H
VL: B27 VL
notes: IgG; gemtuzumab VH variant #5 (T30H)
B30: MYT0488 (antibody, V domains shown)
VH: B27 VH with H26G, S32H
VL: B27 VL
notes: IgG; gemtuzumab VH variant #7 (S32H)
B31: MYT0492 (antibody, V domains shown)
VH: B27 VH with H26G, Y50H
VL: B27 VL
notes: IgG; gemtuzumab VH variant #11 (Y50H)
B32: MYT0487 (antibody, V domains shown)
VH: B27 VH with H26G, D31H
VL: B27 VL
notes: IgG; gemtuzumab VH variant #6 (D31H)
B33: MYT0490 (antibody, V domains shown)
VH: B27 VH with H26G, I34H
VL: B27 VL
notes: IgG; gemtuzumab VH variant #9 (I34H)
B34: MYT0489 (antibody, V domains shown)
VH: B27 VH with H26G, N33H
VL: B27 VL
notes: IgG; gemtuzumab VH variant #8 (N33H)
B35: MYT0484 (antibody, V domains shown)
VH: B27 VH with H26G, T28H
VL: B27 VL
notes: IgG; gemtuzumab VH variant #3 (T28H)
B36: MYT0485 (antibody, V domains shown)
VH: B27 VH with H26G, I29H
VL: B27 VL
notes: IgG; gemtuzumab VH variant #4 (I29H)
B37: MYT0493 (antibody, V domains shown)
VH: B27 VH with H26G, I51H
VL: B27 VL
notes: IgG; gemtuzumab VH variant #12 (I51H)

Molecular target: T1, CD33 (Sino Biological, Cat #12238-H08H) (UniProt P20138 18-259)
T1 sequence (P20138 18-259 limits assumed): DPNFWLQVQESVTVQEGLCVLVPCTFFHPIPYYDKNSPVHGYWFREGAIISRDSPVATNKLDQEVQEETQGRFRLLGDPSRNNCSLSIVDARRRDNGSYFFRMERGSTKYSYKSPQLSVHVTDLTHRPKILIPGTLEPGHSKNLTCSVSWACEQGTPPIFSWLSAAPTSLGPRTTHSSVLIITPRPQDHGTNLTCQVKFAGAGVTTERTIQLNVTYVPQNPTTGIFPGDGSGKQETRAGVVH
Experiment: BLI, IgG captured on anti-human Fc sensor, 50 nM CD33, pH 7.4 vs pH 5.4

| binding result | Binder |
| --- | --- |
| binds | B1 |
| binds | B2 |
| binds | B3 |
| binds | B4 |
| binds | B5 |
| binds | B6 |
| binds | B7 |
| binds | B8 |
| binds | B9 |
| binds | B10 |
| binds | B11 |
| binds | B12 |
| binds | B13 |
| binds | B14 |
| binds | B15 |
| binds | B16 |
| binds | B17 |
| binds | B18 |
| binds | B19 |
| binds | B20 |
| binds | B21 |
| binds | B22 |
| binds | B23 |
| binds | B24 |
| binds | B25 |
| binds | B26 |

Molecular target: T1, CD33 (Sino Biological, Cat #12238-H08H)
Experiment: BLI, IgG captured on anti-human Fc sensor, 50 nM CD33, pH 7.4 vs pH 5.0
Source text: Multiple CD33-binding monoclonal antibodies have been described in the literature and can be used as a template for engineering pH-dependent binding (Hamann P R et al (2002) “Gemtuzumab ozogamicin, a potent and selective anti-CD33 antibody-calicheamicin conjugate for treatment of acute myeloid leukemia.” Bioconjug Chem 13(1):47-58). Gemtuzumab (Heavy chain SEQ ID NO: 1, Light chain SEQ ID NO: 2) was selected as a CD33-binding monoclonal antibody for pH engineering via histidine scanning. Briefly, CDRs in the heavy chain were identified using the methods described by Kabat et al (Kabat et al. (1992) Sequences of Proteins of Immunological Interest, DIANE publishing) and IMGT (Lefranc M P (1999) “The IMGT unique numbering for Immunoglobulins, T cell receptors and Ig-like domains” The Immunologist 7, 132-136), and for each CDR, residues falling under either or both Kabat and IMGT CDR definitions were called as CDR residues. To generate pH-dependent sequence variants, individual amino acid residues within the heavy chain CDRs were systematically substituted with a histidine, one at a time (MYT0482-MYT0517). In cases where the starting CDR residue was a histidine, it was mutated to an alanine. Antibody variants with only one histidine or alanine mutation in a heavy chain CDR were generated by co-transfection of Expi293 cells with a) one heavy chain sequence variant, and b) the corresponding starting ABPC light chain using methods known to the art. After allowing for four days of protein expression, cell culture supernatants were collected, quantified by SDS-PAGE analysis, (FIG. 1), and the pH dependence of the variant was evaluated using biolayer interferometry (BLI) on an Octet RED 384 instrument. Briefly, cell culture supernatants were normalized to an antibody expression level of 25 μg/mL, and captured on an anti-human Fc sensor (Forte Bio). A baseline was established using 1×PBST (50 mM Potassium Phosphate Buffer+150 mM NaCl+0.05% Tween 20) pH 7.4, and the sensor was associated with 50 nM of CD33 (Sino Biological, Cat #12238) in 1×PBST pH 7.4 for 120 sec to generate an association curve. In the dissociation phase, the antibody-antigen complex on the sensor was exposed to 1×PBST pH 7.4 for 300-600 sec. Baseline, association, and dissociation were repeated using 1×MES (100 mM MES Buffer+150 mM NaCl+0.05% Tween 20) pH 5.0 throughout in a separate condition.

| binding result | Binder |
| --- | --- |
| binds | B27 |
| binds | B28 |
| binds | B29 |
| binds | B30 |
| binds | B31 |
| binds | B32 |
| binds | B33 |
| binds | B34 |
| binds | B35 |
| binds | B36 |
| binds | B37 |
